Patent publication US20200024322A1 (Eli Lilly, published 2020)
Numbered stars: 1 amine (or outer) side, 2 acyl side, 3 side chain; on linkers, the order of the positions; unused ones are H or OH. Square brackets hold non-standard residues; d marks the D form. Side chains are listed from the residue outwards. Ends that are not written are not given here. * marks the point of attachment. C20 diacid = O=C(O)CCCCCCCCCCCCCCCCCCC(=O)*; C18 diacid = O=C(O)CCCCCCCCCCCCCCCCC(=O)*; γGlu = O=C(O)[C@H](CCC(=O)[*:2])N[*:1]; AEEA = NCCOCCOCC(=O)O; Aib = CC(C)(N)C(=O)O

T1: human GIP receptor (human, UniProt P48546 22-466)
T1 construct: whole, on cells; also called hGIPR; hGIP-R
T1 sequence (looked up): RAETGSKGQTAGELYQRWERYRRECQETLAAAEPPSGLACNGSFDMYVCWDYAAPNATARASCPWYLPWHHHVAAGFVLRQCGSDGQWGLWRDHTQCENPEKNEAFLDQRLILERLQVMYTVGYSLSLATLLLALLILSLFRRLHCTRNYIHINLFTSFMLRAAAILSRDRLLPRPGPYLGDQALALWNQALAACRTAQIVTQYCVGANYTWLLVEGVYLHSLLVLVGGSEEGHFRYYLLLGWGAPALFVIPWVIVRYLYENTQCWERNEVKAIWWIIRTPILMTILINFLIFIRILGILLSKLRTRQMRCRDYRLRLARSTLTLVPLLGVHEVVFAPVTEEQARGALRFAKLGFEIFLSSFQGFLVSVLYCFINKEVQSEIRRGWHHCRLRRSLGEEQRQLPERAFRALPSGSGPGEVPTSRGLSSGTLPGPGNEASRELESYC


Assays:
human glucagon receptor = molecular target: T2, human glucagon receptor (human, UniProt P47871 26-477); assay: [125I]-Gcg competition SPA, hGcgR membranes
T2 construct: whole, on cells; also called hGcgR; GcgR

human GIP receptor = molecular target: T1, human GIP receptor; assay: [125I]-GIP competition SPA, hGIPR membranes
human GLP-1 receptor = molecular target: T3, human GLP-1 receptor (human, UniProt P43220 24-463); assay: [125I]-GLP-1 competition SPA, hGLP-1R membranes
T3 construct: whole, on cells; also called hGLP-1R; hGLP1R
In short: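 Kᵢ values are geometric means (SEM) over replicates run on separate days, derived from IC₅₀ of four-parameter curve fits. Buffer: HEPES 25 mM pH 7.4 with CaCl₂ 2.5 mM, MgCl₂ 1 mM, bacitracin 0.1%, TWEEN-20 0.003%, EDTA-free protease inhibitors.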

T2 sequence (P47871 26-477): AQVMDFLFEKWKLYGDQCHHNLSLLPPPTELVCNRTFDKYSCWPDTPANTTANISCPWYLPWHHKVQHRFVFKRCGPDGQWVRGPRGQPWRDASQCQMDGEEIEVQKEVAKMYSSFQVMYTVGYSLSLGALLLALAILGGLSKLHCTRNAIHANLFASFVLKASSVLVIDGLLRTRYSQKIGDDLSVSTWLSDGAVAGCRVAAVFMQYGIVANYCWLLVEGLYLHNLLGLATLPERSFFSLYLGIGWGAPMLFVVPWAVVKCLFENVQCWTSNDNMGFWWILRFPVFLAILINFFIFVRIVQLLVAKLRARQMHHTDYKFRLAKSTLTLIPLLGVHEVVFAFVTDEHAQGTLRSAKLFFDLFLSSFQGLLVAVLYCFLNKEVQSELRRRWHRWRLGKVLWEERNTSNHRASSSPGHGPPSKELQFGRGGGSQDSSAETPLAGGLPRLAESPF

Binder | Ki (human glucagon receptor) | Ki (human GIP receptor) | Ki (human GLP-1 receptor)
Y[Aib]EGTFTSDYSILLDKK([AEEA-AEEA-γGlu-C20 diacid])AQ[Aib]EFIEYLIAGGPSSG-NH2 (N-terminus assumed; SMILES CC[C@H](C)[C@H](NC(=O)[C@H](CC(C)C)NC(=O)[C@H](Cc1ccc(O)cc1)NC(=O)[C@H](CCC(=O)O)NC(=O)[C@@H](NC(=O)[C@H](Cc1ccccc1)NC(=O)[C@H](CCC(=O)O)NC(=O)C(C)(C)NC(=O)[C@H](CCC(N)=O)NC(=O)[C@H](C)NC(=O)[C@H](CCCCNC(=O)COCCOCCNC(=O)COCCOCCNC(=O)CC[C@H](NC(=O)CCCCCCCCCCCCCCCCCCC(=O)O)C(=O)O)NC(=O)[C@H](CCCCN)NC(=O)[C@H](CC(=O)O)NC(=O)[C@H](CC(C)C)NC(=O)[C@H](CC(C)C)NC(=O)[C@@H](NC(=O)[C@H](CO)NC(=O)[C@H](Cc1ccc(O)cc1)NC(=O)[C@H](CC(=O)O)NC(=O)[C@H](CO)NC(=O)[C@@H](NC(=O)[C@H](Cc1ccccc1)NC(=O)[C@@H](NC(=O)CNC(=O)[C@H](CCC(=O)O)NC(=O)C(C)(C)NC(=O)[C@@H](N)Cc1ccc(O)cc1)[C@@H](C)O)[C@@H](C)O)[C@@H](C)CC)[C@@H](C)CC)C(=O)N[C@@H](C)C(=O)NCC(=O)NCC(=O)N1CCC[C@H]1C(=O)N[C@@H](CO)C(=O)N[C@@H](CO)C(=O)NCC(N)=O) [Example 318] | 730 nM | 0.0452 nM | 7.52 nM
Y[Aib]EGTFTSDYSILLDKK([AEEA-AEEA-γGlu-C18 diacid])AQ[Aib]TFIEYLIEGGPSSG-NH2 (N-terminus assumed; SMILES CC[C@H](C)[C@H](NC(=O)[C@H](CC(C)C)NC(=O)[C@H](Cc1ccc(O)cc1)NC(=O)[C@H](CCC(=O)O)NC(=O)[C@@H](NC(=O)[C@H](Cc1ccccc1)NC(=O)[C@@H](NC(=O)C(C)(C)NC(=O)[C@H](CCC(N)=O)NC(=O)[C@H](C)NC(=O)[C@H](CCCCNC(=O)COCCOCCNC(=O)COCCOCCNC(=O)CC[C@H](NC(=O)CCCCCCCCCCCCCCCCC(=O)O)C(=O)O)NC(=O)[C@H](CCCCN)NC(=O)[C@H](CC(=O)O)NC(=O)[C@H](CC(C)C)NC(=O)[C@H](CC(C)C)NC(=O)[C@@H](NC(=O)[C@H](CO)NC(=O)[C@H](Cc1ccc(O)cc1)NC(=O)[C@H](CC(=O)O)NC(=O)[C@H](CO)NC(=O)[C@@H](NC(=O)[C@H](Cc1ccccc1)NC(=O)[C@@H](NC(=O)CNC(=O)[C@H](CCC(=O)O)NC(=O)C(C)(C)NC(=O)[C@@H](N)Cc1ccc(O)cc1)[C@@H](C)O)[C@@H](C)O)[C@@H](C)CC)[C@@H](C)O)[C@@H](C)CC)C(=O)N[C@@H](CCC(=O)O)C(=O)NCC(=O)NCC(=O)N1CCC[C@H]1C(=O)N[C@@H](CO)C(=O)N[C@@H](CO)C(=O)NCC(N)=O) [Example 321] | 770 nM | 0.064 nM | 4.2 nM
Y[Aib]EGTFTSDYSILLDKK([AEEA-AEEA-γGlu-C18 diacid])AQ[Aib]HFIEYLIEGGPSSG-NH2 (N-terminus assumed; SMILES CC[C@H](C)[C@H](NC(=O)[C@H](CC(C)C)NC(=O)[C@H](Cc1ccc(O)cc1)NC(=O)[C@H](CCC(=O)O)NC(=O)[C@@H](NC(=O)[C@H](Cc1ccccc1)NC(=O)[C@H](Cc1c[nH]cn1)NC(=O)C(C)(C)NC(=O)[C@H](CCC(N)=O)NC(=O)[C@H](C)NC(=O)[C@H](CCCCNC(=O)COCCOCCNC(=O)COCCOCCNC(=O)CC[C@H](NC(=O)CCCCCCCCCCCCCCCCC(=O)O)C(=O)O)NC(=O)[C@H](CCCCN)NC(=O)[C@H](CC(=O)O)NC(=O)[C@H](CC(C)C)NC(=O)[C@H](CC(C)C)NC(=O)[C@@H](NC(=O)[C@H](CO)NC(=O)[C@H](Cc1ccc(O)cc1)NC(=O)[C@H](CC(=O)O)NC(=O)[C@H](CO)NC(=O)[C@@H](NC(=O)[C@H](Cc1ccccc1)NC(=O)[C@@H](NC(=O)CNC(=O)[C@H](CCC(=O)O)NC(=O)C(C)(C)NC(=O)[C@@H](N)Cc1ccc(O)cc1)[C@@H](C)O)[C@@H](C)O)[C@@H](C)CC)[C@@H](C)CC)C(=O)N[C@@H](CCC(=O)O)C(=O)NCC(=O)NCC(=O)N1CCC[C@H]1C(=O)N[C@@H](CO)C(=O)N[C@@H](CO)C(=O)NCC(N)=O) [Example 322] | 1030 nM | 0.175 nM | 2.31 nM
Y[Aib]EGTFTSDYSILLDKK([AEEA-AEEA-γGlu-C18 diacid])AQ[Aib]AFIEYLIEGG-NH2 (N-terminus assumed; SMILES CC[C@H](C)[C@H](NC(=O)[C@H](CC(C)C)NC(=O)[C@H](Cc1ccc(O)cc1)NC(=O)[C@H](CCC(=O)O)NC(=O)[C@@H](NC(=O)[C@H](Cc1ccccc1)NC(=O)[C@H](C)NC(=O)C(C)(C)NC(=O)[C@H](CCC(N)=O)NC(=O)[C@H](C)NC(=O)[C@H](CCCCNC(=O)COCCOCCNC(=O)COCCOCCNC(=O)CC[C@H](NC(=O)CCCCCCCCCCCCCCCCC(=O)O)C(=O)O)NC(=O)[C@H](CCCCN)NC(=O)[C@H](CC(=O)O)NC(=O)[C@H](CC(C)C)NC(=O)[C@H](CC(C)C)NC(=O)[C@@H](NC(=O)[C@H](CO)NC(=O)[C@H](Cc1ccc(O)cc1)NC(=O)[C@H](CC(=O)O)NC(=O)[C@H](CO)NC(=O)[C@@H](NC(=O)[C@H](Cc1ccccc1)NC(=O)[C@@H](NC(=O)CNC(=O)[C@H](CCC(=O)O)NC(=O)C(C)(C)NC(=O)[C@@H](N)Cc1ccc(O)cc1)[C@@H](C)O)[C@@H](C)O)[C@@H](C)CC)[C@@H](C)CC)C(=O)N[C@@H](CCC(=O)O)C(=O)NCC(=O)NCC(N)=O) [Example 267] | 349 nM | 0.0628 nM | 1.57 nM
Y[Aib]EGTFTSDYSILLDKK([AEEA-AEEA-γGlu-C18 diacid])AQ[Aib]AFIEYLIAGG-NH2 (N-terminus assumed; SMILES CC[C@H](C)[C@H](NC(=O)[C@H](CC(C)C)NC(=O)[C@H](Cc1ccc(O)cc1)NC(=O)[C@H](CCC(=O)O)NC(=O)[C@@H](NC(=O)[C@H](Cc1ccccc1)NC(=O)[C@H](C)NC(=O)C(C)(C)NC(=O)[C@H](CCC(N)=O)NC(=O)[C@H](C)NC(=O)[C@H](CCCCNC(=O)COCCOCCNC(=O)COCCOCCNC(=O)CC[C@H](NC(=O)CCCCCCCCCCCCCCCCC(=O)O)C(=O)O)NC(=O)[C@H](CCCCN)NC(=O)[C@H](CC(=O)O)NC(=O)[C@H](CC(C)C)NC(=O)[C@H](CC(C)C)NC(=O)[C@@H](NC(=O)[C@H](CO)NC(=O)[C@H](Cc1ccc(O)cc1)NC(=O)[C@H](CC(=O)O)NC(=O)[C@H](CO)NC(=O)[C@@H](NC(=O)[C@H](Cc1ccccc1)NC(=O)[C@@H](NC(=O)CNC(=O)[C@H](CCC(=O)O)NC(=O)C(C)(C)NC(=O)[C@@H](N)Cc1ccc(O)cc1)[C@@H](C)O)[C@@H](C)O)[C@@H](C)CC)[C@@H](C)CC)C(=O)N[C@@H](C)C(=O)NCC(=O)NCC(N)=O) [Example 273] | 724 nM | 0.0698 nM | 1.13 nM
Y[Aib]EGTFTSDYSILLDKK([AEEA-AEEA-γGlu-C20 diacid])AQ[Aib]AFIEYLIAGGPSSGAPPPS-NH2 (N-terminus assumed; SMILES CC[C@H](C)[C@H](NC(=O)[C@H](CC(C)C)NC(=O)[C@H](Cc1ccc(O)cc1)NC(=O)[C@H](CCC(=O)O)NC(=O)[C@@H](NC(=O)[C@H](Cc1ccccc1)NC(=O)[C@H](C)NC(=O)C(C)(C)NC(=O)[C@H](CCC(N)=O)NC(=O)[C@H](C)NC(=O)[C@H](CCCCNC(=O)COCCOCCNC(=O)COCCOCCNC(=O)CC[C@H](NC(=O)CCCCCCCCCCCCCCCCCCC(=O)O)C(=O)O)NC(=O)[C@H](CCCCN)NC(=O)[C@H](CC(=O)O)NC(=O)[C@H](CC(C)C)NC(=O)[C@H](CC(C)C)NC(=O)[C@@H](NC(=O)[C@H](CO)NC(=O)[C@H](Cc1ccc(O)cc1)NC(=O)[C@H](CC(=O)O)NC(=O)[C@H](CO)NC(=O)[C@@H](NC(=O)[C@H](Cc1ccccc1)NC(=O)[C@@H](NC(=O)CNC(=O)[C@H](CCC(=O)O)NC(=O)C(C)(C)NC(=O)[C@@H](N)Cc1ccc(O)cc1)[C@@H](C)O)[C@@H](C)O)[C@@H](C)CC)[C@@H](C)CC)C(=O)N[C@@H](C)C(=O)NCC(=O)NCC(=O)N1CCC[C@H]1C(=O)N[C@@H](CO)C(=O)N[C@@H](CO)C(=O)NCC(=O)N[C@@H](C)C(=O)N1CCC[C@H]1C(=O)N1CCC[C@H]1C(=O)N1CCC[C@H]1C(=O)N[C@@H](CO)C(N)=O, also called GG-709) [Example 288] | 345 nM | 0.058 nM | 1.6 nM
F[Aib]EGTFTSDYSILLDKK([AEEA-AEEA-γGlu-C20 diacid])AQ[Aib]AFIEYLIEGGPSSGAPPPS-NH2 [Example 326] | 207 nM | 0.251 nM | 2.92 nM
YXEGTFTSDYSIXLDKKAQXAFIEYLIAGGPSSGAPPPS (Aib2; αMeL13; K17((2-[2-(2-Amino-ethoxy)-ethoxy]-acetyl)2-(γ-Glu)-CO-(CH2)18-CO2H); Aib20; C-terminal NH2) [Example 324] | 449 nM | 0.0278 nM | 0.609 nM
YXEGTFTSDYSIXLDEKAQXAFIEYLIEGGPSSGAPPPS (Aib2; αMeL13; K17((2-[2-(2-Amino-ethoxy)-ethoxy]-acetyl)2-(γ-Glu)-CO-(CH2)16-CO2H); Aib20; C-terminal NH2) [Example 323] | 300 nM | 0.0516 nM | 1.65 nM
